Consider four molecules from patent US20230203170A1 (DRAGONBOAT BIOPHARMACEUTICAL SHANGHAI, published 2023).

Test [1] deals with full-length mouse CSF-1R (RefSeq ID NP_001032948) expressed on HEK293F cells (mouse) (UniProt P09581). Nature of the test: flow cytometry on HEK293F cells transiently expressing full-length mouse CSF-1R (IRES-EGFP vector), IgG at 100 nM, Alexa Fluor 647 anti-human Fc detection [Conti.]. For orientation: Flow cytometry measures light scatter and fluorescence of single cells or particles in a stream.

In test [2] the target is T1, human CSF1R-His (Acrobiosystem, CSR-H5228) (human, UniProt P07333 20-512, limits assumed).
T1 construct: Bought protein; The catalogue number is printed only for the SPR assay; also called human CSF-1R protein; not shown: His tag
Nature of the test: SPR Biacore T200; IgG captured by anti-human Fc, CSF1R-His as analyte, 1:1 fit. From the text: The specific binding affinity and kinetics of antibodies against human CSF-1R protein were examined by surface plasmon resonance (SPR) analysis using a Biacore™ T200 instrument (GE, USA) according to the manufacturer’s guidelines. Anti-Human IgG (Fc) antibody (Sigma, I2136) was immobilized on CM5 chips according to the instructions of Amine Coupling kit (GE Biacore #BR-1000-50). The immobilized Anti-Human IgG (Fc) antibody was used to capture the antibodies. […] The running buffer used was 0.01 M HEPES, 0.15 M NaCl, 3 mM EDTA, 0.05% (v/v) surfactant P20, pH 7.4. Corresponding controls were conducted in each case using a blank flow cell with no protein captured for “background” subtraction. The association and dissociation curves were fitted to a 1:1 Langmuir binding model using Biacore T200 Evaluation Software (GE, USA) according to the manufacturer’s guidelines.
In general terms: SPR reads the build-up and loss of mass on a sensor chip optically.

Test [3] has as its target T2, full-length mouse CSF-1R (RefSeq ID NP_001032948) expressed on HEK293F cells (mouse, UniProt P09581 20-977).
T2 construct: whole, on cells
T2 sequence (looked up): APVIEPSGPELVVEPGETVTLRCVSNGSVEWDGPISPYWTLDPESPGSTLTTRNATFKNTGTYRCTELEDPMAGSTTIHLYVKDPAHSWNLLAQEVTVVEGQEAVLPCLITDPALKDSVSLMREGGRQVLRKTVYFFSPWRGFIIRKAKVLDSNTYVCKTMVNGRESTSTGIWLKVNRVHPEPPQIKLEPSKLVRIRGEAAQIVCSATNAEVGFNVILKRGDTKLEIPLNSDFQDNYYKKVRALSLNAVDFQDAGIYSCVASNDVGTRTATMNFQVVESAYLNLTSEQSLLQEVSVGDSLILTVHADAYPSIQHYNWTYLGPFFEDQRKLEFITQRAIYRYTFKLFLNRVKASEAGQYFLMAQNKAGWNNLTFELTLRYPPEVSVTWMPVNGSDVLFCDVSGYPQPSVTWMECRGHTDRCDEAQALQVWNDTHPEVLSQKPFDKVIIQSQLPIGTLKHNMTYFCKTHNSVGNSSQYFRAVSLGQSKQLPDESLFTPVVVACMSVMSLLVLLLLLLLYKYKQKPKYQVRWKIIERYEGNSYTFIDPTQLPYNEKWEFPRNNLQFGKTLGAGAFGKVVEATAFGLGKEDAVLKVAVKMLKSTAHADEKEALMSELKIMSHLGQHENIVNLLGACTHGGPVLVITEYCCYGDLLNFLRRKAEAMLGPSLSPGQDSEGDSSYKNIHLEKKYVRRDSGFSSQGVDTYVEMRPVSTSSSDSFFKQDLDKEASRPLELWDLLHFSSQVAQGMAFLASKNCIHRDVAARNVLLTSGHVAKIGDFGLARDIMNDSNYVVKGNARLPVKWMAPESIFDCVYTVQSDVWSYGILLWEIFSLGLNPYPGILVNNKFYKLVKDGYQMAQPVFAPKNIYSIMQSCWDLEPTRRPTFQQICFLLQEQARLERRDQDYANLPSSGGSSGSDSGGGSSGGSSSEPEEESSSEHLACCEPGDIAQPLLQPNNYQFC
Kind of test: flow cytometry on HEK293F cells transiently expressing full-length mouse CSF-1R (IRES-EGFP vector), Alexa Fluor 647 anti-human Fc detection [Conti.]. The protocol:
(§1) The specificities of the antibodies were also assessed against human, monkey and mouse CSF-1R that are transiently expressed on the surface of HEK293F cells (FIG. 1). Briefly, HEK293F cells were transfected with a plasmid expressing full-length human, monkey (RefSeq ID XP_015307616) or mouse (RefSeq ID NP_001032948) CSF-1R from a bicistronic IRES vector. EGFP was used to identify the transfected cells. After 40 hrs, the transfected cells were harvested and then washed once with 1% PBSA buffer (1% (w/v) BSA in 1×PBS). Cells were then incubated with various IgGs (each at 100 nM) for 1 hr at room temperature, washed once with pre-chilled 1% PBSA buffer, and incubated with Alexa Fluor® 647 conjugated mouse anti-human Fc antibodies for 30 min on ice. The cells were washed once prior to analysis by flow cytometry (Beckman® CytoFlex).

The target in test [4] is T3, full-length human CSF-1R expressed on cells (human, UniProt P07333 20-972).
T3 construct: whole, on cells
Nature of the test: flow cytometry on HEK293F cells transiently expressing full-length human CSF-1R (IRES-EGFP vector), IgG at 100 nM, Alexa Fluor 647 anti-human Fc detection [Conti.]. The protocol:
as §1

The target of test [5] is full-length monkey CSF-1R (RefSeq ID XP_015307616) expressed on HEK293F cells (monkey, UniProt A0A2K5WG90 20-976). Kind of test: flow cytometry on HEK293F cells transiently expressing full-length monkey CSF-1R (IRES-EGFP vector), IgG at 100 nM, Alexa Fluor 647 anti-human Fc detection [Conti.]. The protocol: as §1
Test [6] has as its target T2, full-length mouse CSF-1R (RefSeq ID …). Nature of the test: flow cytometry on transfected HEK293F cells. The protocol: as §1

Sequence of full-length monkey CSF-1R (RefSeq ID XP_015307616) expressed on HEK293F cells (A0A2K5WG90 entry or part of it limits assumed, form in doubt): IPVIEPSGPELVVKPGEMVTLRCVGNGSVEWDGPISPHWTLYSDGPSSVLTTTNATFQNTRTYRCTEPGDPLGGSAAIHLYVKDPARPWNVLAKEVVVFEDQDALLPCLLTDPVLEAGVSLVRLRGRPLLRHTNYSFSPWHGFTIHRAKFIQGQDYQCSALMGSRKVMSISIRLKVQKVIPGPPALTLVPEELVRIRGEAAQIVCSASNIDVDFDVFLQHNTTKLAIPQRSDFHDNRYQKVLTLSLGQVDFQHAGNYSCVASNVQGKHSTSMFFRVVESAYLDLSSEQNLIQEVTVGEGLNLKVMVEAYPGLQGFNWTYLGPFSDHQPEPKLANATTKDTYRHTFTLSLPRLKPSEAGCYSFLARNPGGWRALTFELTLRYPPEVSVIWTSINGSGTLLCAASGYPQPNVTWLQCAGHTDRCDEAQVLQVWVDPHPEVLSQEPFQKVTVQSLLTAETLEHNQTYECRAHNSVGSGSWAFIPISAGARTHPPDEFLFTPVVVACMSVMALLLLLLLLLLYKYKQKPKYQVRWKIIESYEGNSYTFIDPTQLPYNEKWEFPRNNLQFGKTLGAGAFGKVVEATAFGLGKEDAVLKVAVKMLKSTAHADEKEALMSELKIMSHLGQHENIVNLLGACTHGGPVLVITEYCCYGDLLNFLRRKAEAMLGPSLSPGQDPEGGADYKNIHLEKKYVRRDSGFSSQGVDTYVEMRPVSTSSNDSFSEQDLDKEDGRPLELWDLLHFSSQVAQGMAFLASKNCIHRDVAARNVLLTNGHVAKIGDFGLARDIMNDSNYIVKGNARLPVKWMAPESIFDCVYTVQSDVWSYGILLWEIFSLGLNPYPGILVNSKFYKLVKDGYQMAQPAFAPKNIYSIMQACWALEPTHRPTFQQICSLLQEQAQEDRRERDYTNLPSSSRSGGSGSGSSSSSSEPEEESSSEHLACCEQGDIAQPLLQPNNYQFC

As to Isotype Ctrl (antibody), in test [1], the percent of cells in the upper right quadrant (APC Ab binding positive, FITC Ag display positive) was found to be 0.17%.

B1: TY21430 (antibody, human IgG4, V domains shown)
VH: EVQLVESGGGLVQPGGSLRLSCAASGYSITSGHHWAWIRQAPGKGLEWVSSISGSGSTTYYADSVKGRFTISRDNSKNTLYLQLNSLRAEDTAVYYCARGSYYGAGSFDYWGQGTLVTVSS
VL: DIQLTQSPSSLSASVGDRVTITCRASQGITSALAWYQQKPGKAPKLLIYDASSLESGVPSRFSGSGSGTDFTLTISSLQPEDFATYYCQQYYPWPWTFGQGTKVEIK
notes: Human IgG4 isotype with S241P mutation
In the case of B1, the Kd in test [2] was found to be 8.35 nM. In test [3], the binding result is recorded as “no binding (tested: 100 nM)”. The “percent of cells in the upper right quadrant (APC Ab binding positive, FITC Ag display positive)” value is 41.2% in test [4] and 32.3% in test [5].

B2: TY21432 (antibody, human IgG4, V domains shown)
VH: EVQLVESGGGLVQPGGSLRLSCAASGYTFSSYAIHWVRQAPGKGLEWVSVISGAGSSTYYADSVKGRFTISRDNSKNTLYLQLNSLRAEDTAVYYCARRTPAGNYFDYWGQGTLVTVSS
VL: DIQLTQSPSSLSASVGDRVTITCRASQGISRWLAWYQQKPGKAPKLLIYDASSLESGVPSRFSGSGSGTDFTLTISSLQPEDFATYYCEQYLEVPPTFGQGTKVEIK
notes: as for B1
In test [2], B2 gave a Kd of 13.8 nM. Moreover, in test [3], the binding result is reported as “no binding (tested: 100 nM)”. For the same molecule, the figures for the “percent of cells in the upper right quadrant (APC Ab binding positive, FITC Ag display positive)” value in test [4] and in test [5] were 41.7% and 28.8%, respectively.

B3: TY21431 (antibody, human IgG4, V domains shown)
VH: EVQLVESGGGLVQPGGSLRLSCAASGFTFTDYAIHWVRQAPGKGLEWVSVISGYGSSTYYADSVKGRFTISRDNSKNTLYLQLNSLRAEDTAVYYCARGSYSSVYFDVWGQGTLVTVSS
VL: DIQLTQSPSSLSASVGDRVTITCKASQDVRTAVAWYQQKPGKAPKLLIYAASSLQSGVPSRFSGSGSGTDFTLTISSLQPEDFATYYCQQSYPIPFTFGQGTKVEIK
notes: as for B1
Regarding B3, in test [6], the binding result is “no binding (tested: 100 nM)”. Also, in test [2], the Kd stood at 20.9 nM.

Usually Kd stands for the constant that tells how readily two partners part at equilibrium.
